Earlier results on two substances are cited in PMC9542338.

Read-outs that look alike come from different tables or passages of the source.

For data set [1], the target named is CD155 (Homo sapiens) (UniProt P15151).
Data set [2] has the same target. This is another data set of the same source.

Sequence of UniProt P15151 (P15151 21-343): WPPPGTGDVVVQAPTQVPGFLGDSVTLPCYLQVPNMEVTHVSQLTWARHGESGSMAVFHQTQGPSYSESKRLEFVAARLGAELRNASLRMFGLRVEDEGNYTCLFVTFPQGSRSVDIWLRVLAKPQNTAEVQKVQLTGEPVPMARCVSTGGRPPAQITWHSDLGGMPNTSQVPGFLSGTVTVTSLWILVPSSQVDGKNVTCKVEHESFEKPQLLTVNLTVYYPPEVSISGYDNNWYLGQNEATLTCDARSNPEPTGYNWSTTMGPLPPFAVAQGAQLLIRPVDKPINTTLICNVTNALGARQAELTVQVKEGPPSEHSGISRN

CD226 (from UniProt Q15762): the Kd in the data set with CD155 (Homo sapiens) [1] was 115 nM.
For the substance TIGIT (from UniProt Q495A1), the equilibrium dissociation constant (Kd) in the data set with CD155 (Homo sapiens) [2] was 2 nM.

By Kd is commonly meant the free concentration of one partner at which half of the binding sites on the other are occupied at equilibrium, for simple one-to-one binding.
